Assay results taken from publication PMC7800377, “A molecular mechanism for LINC complex branching by structurally diverse SUN-KASH 6:6 assemblies” (eLife, 2021).

B1: GCN4-SUN1 (His6-GCN4 fusion of the SUN domain of human SUN1, residues 616–812), wild-type (domain or fragment)
chain: GITEAQARAIVNSALKLYSQDKTGMVDFALESGGGSILSTRCSETYETKTALMSLFGIPLWYFSQSPRVVIQPDIYPGNCWAFKGSQGYLVVRLSMMIHPAAFTLEHIPKTLSPTGNISSAPKDFAVYGLENEYQEEGQLLGQFTYDQDGESLQMFQALKRPDDTAFQIVELRIFSNWGHPEYTCLYRFRVHGEPVK
B3: GCN4-SUN2 (His6-GCN4 fusion of the SUN domain of human SUN2, residues 522–717), wild-type (domain or fragment, UniProt Q9UH99 522-717, looked up)
chain: GVTEEQVHHIVKQALQRYSEDRIGLADYALESGGASVISTRCSETYETKTALLSLFGIPLWYHSQSPRVILQPDVHPGNCWAFQGPQGFAVVRLSARIRPTAVTLEHVPKALSPNSTISSAPKDFAIFGFDEDLQQEGTLLGKFTYDQDGEPIQTFHFQAPTMATYQVVELRILTNWGHPEYTCIYRFRVHGEPAH
notes: SUN2, human, SUN domain, residues 522-717; The GCN4 tag is a trimerising tag (Sosa et al., 2012); not shown: His6, N-terminal, kept; GCN4, N-terminal, kept

What was measured:
[1] = biological target: the molecule itself; experiment: SEC-MALS; co-expressed and co-purified samples at >1 mg/ml on Superdex 200 Increase 10/300 GL in 20 mM Tris pH 8.0, 150 mM KCl, 2 mM DTT
[2] = biological target: B1; experiment: as above; details: both partners purified
[3] = biological target: B3; experiment: as above; details: both partners purified
[4] = biological target: T1, GCN4-SUN2 C705A (His6-GCN4 fusion of SUN2 522–717 C705A) (human, UniProt Q9UH99 522-717, C705A); experiment: as above; details: both partners purified
T1 construct: SUN2, human, SUN domain, residues 522-717, C705A; The GCN4 tag is a trimerising tag (Sosa et al., 2012); not shown: His6, N-terminal, kept; GCN4, N-terminal, kept
T1 sequence (looked up): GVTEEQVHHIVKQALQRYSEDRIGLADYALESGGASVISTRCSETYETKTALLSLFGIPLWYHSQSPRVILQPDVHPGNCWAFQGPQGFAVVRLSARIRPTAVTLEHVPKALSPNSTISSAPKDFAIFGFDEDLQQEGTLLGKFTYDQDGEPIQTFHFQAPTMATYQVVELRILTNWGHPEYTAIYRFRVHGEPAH

[5] = biological target: the molecule itself; experiment: not stated; unpublished findings (Gurusaran and Davies)

B1
stoichiometry N [1]: 3

B2: MBP-KASH5 (His6-MBP fusion of the KASH domain of human KASH5, residues 542–562) (domain or fragment, UniProt Q8N6L0 542-562, looked up)
chain: GPSPPPTWPHLQLCYLQPPPV
notes: KASH5, human, C-terminal KASH domain, residues 542-562
stoichiometry N [2]: 1 binder:target ratio (6:6)

B3
stoichiometry N [1]: 3

B4: MBP-KASH4 (His6-MBP fusion of the KASH domain of human Nesprin-4, residues 376–404) (domain or fragment, UniProt Q8N205 376-404, looked up)
chain: ASGGPCCSHARIPRTPYLVLSYVNGLPPV
notes: Nesprin-4, human, C-terminal KASH domain, residues 376-404
stoichiometry N [3]: 1 binder:target ratio (6:6)
stoichiometry N [2]: 1 binder:target ratio (6:6)

B5: MBP-KASH1 (His6-MBP fusion of the KASH domain of human Nesprin-1, residues 8769–8797) (domain or fragment)
chain: not shown
notes: Nesprin-1, human, C-terminal KASH domain, residues 8769-8797
stoichiometry N [4]: 1 binder:target ratio (6:6)
stoichiometry N [2]: 1 binder:target ratio (6:6)

B6: KASH5 (construct not told; unpublished findings) (natural protein, human, UniProt Q8N6L0 1-562, looked up)
chain: MDLPEGPVGGPTAEMYLRERPEEARLGMPVSLEEQILNSTFEACDPQRTGTVAVAQVLAYLEAVTGQGPQDARLQTLANSLDPNGEGPKATVDLDTFLVVMRDWIAACQLHGGLELEEETAFQGALTSRQLPSGCPEAEEPANLESFGGEDPRPELQATADLLSSLEDLELSNRRLVGENAKLQRSMETAEEGSARLGEEILALRKQLHSTQQALQFAKAMDEELEDLKTLARSLEEQNRSLLAQARQAEKEQQHLVAEMETLQEENGKLLAERDGVKKRSQELAMEKDTLKRQLFECEHLICQRDTILSERTRDVESLAQTLEEYRVTTQELRLEISRLEEQLSQTYEGPDELPEGAQLRRVGWTELLPPSLGLEIEAIRQKQEVATADLSNPLCGVWQWEEVIHETSEETEFPSEAPAGGQRNFQGEPAHPEEGRKEPSMWLTRREEEEDAESQVTADLPVPLGAPRPGDIPENPPERPARRELQQALVPVMKKLVPVRRRAWGQLCLPPQRLRVTRHPLIPAPVLGLLLLLLLSVLLLGPSPPPTWPHLQLCYLQPPPV
notes: KASH5, human; Told only as 'KASH5 is dimeric (Gurusaran and Davies, unpublished findings)'
stoichiometry N [5]: 2
